Results: patent US6716816
Where no end group is shown, it is not given here. [ ]: non-standard residue; d: D form. Aib = CC(C)(N)C(=O)O

Biological target: T1, lecithin:cholesterol acyltransferase (LCAT), purified from human plasma (human, UniProt P04180 25-440)
T1 sequence (looked up): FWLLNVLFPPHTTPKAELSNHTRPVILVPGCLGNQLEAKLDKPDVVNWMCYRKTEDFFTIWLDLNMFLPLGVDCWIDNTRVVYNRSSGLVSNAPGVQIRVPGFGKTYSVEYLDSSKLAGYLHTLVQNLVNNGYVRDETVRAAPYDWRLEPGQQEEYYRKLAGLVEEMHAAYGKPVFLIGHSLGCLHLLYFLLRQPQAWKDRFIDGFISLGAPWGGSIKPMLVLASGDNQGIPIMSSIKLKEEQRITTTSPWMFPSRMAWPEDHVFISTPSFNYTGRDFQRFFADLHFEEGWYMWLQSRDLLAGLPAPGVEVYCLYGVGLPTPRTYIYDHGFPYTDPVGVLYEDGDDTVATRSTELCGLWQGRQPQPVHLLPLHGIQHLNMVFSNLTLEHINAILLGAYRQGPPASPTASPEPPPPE
Assay: cell-based or functional assay

PVLDEFRDKLNE[Aib]LEALKQKLK [peptide 78]
ACTIVITY (%) LCAT: 9%
